Measurements from PMC3844954.

Legend:
[1] = western blot of acetone-precipitated HEK293 medium; conditions: glycan lost; control: wild-type IFNλ4-FLAG
[2] = IFNλ activity of supernatant, Mx1-luciferase reporter, HEK293+IFNλR1; conditions: glycan lost; control: wild-type IFNλ4-FLAG

B1: IFNλ4 (interferon lambda 4): N61D (protein)
parent chain: MRPSVWAAVAAGLWVLCTVIAAAPRRCLLSHYRSLEPRTLAAAKALRDRYEEEALSWGQRNCSFRPRRDPPRPSSCARLRHVARGIADAQAVLSGLHRSELLPGAGPILELLAAAGRDVAACLELARPGSSRKVPGAQKRRHKPRRADSPRCRKASVVFNLLRLLTWELRLAAHSGPCL
Q: What does the source list for B1?
A: expression_or_secretion [1]: decreases; expression_or_secretion [2]: decreases
